Results as given in the Human Domainome abundance scans (Beltran et al. 2025).
± gives the uncertainty stated by the source.

B1: Cytoplasmic polyadenylation element-binding protein 2, residues 513 to 575; numbered along this chain, Q7Z5Q1 (parent)
chain: KRVEVKPYVLDDQMCDECQGARCGGKFAPFFCANVTCLQYYCEFCWANIHSRAGREFHKPLVK

Variants of: B1
Test: abundance fitness (aPCA) (normalised: wild type 0, dead -1); higher = more abundant; growth selection in yeast, the domain comes from the species named
Settings: Homo sapiens

In order of falling abundance fitness:
1. KRVEVKPYVLDDQMCDECQGARCGGKFAPFFCANVTCLQYYCEFCWANIHSRAGRENHKPLVK [F57N]  0.134 ± 0.076
2. KRVEVKPYVLDDQMCDECQGARCGGKFAPFFCANVTCLQYYCEFCWANIHSRAGREFHKPSVK [L61S]  0.12 ± 0.04
3. KRVEVKPYVLDDQMCDECQGARCGGKFAPFFCANVTCLQYYCEFCWANIHSRAGREFHKPKVK [L61K]  0.065 ± 0.064
4. KRVEVKPYMLDDQMCDECQGARCGGKFAPFFCANVTCLQYYCEFCWANIHSRAGREFHKPLVK [V9M]  0.049 ± 0.034
5. KRVEVKPYVLDDQMCDECQGARCGGKFAPFFCANVTCLQYYCEFCWANIHSRAGREFHKPDVK [L61D]  0.04 ± 0.083
6. KRVEVKPYVLDDQMCDECQGARDGGKFAPFFCANVTCLQYYCEFCWANIHSRAGREFHKPLVK [C23D]  0.028 ± 0.074
7. KRVEVKPYVLDDQMCDECQGARCGGKFAPFFCANVTCWQYYCEFCWANIHSRAGREFHKPLVK [L38W]  0.022 ± 0.046
8. KRVEVKPYVLDDQMCDECQGARCGGKFAPFFCANVTCSQYYCEFCWANIHSRAGREFHKPLVK [L38S]  0.009 ± 0.052
9. KRVEVKPYVLDDQMCDECQGARCGGKLAPFFCANVTCLQYYCEFCWANIHSRAGREFHKPLVK [F27L]  -0.015 ± 0.038
10. KRVEVKPYVPDDQMCDECQGARCGGKFAPFFCANVTCLQYYCEFCWANIHSRAGREFHKPLVK [L10P]  -0.028 ± 0.047
11. KRHEVKPYVLDDQMCDECQGARCGGKFAPFFCANVTCLQYYCEFCWANIHSRAGREFHKPLVK [V3H]  -0.039 ± 0.079
12. KRVEVKPYVLDDQMCDECQGARCGGKFAPFFCANVTCLQYYCNFCWANIHSRAGREFHKPLVK [E43N]  -0.05 ± 0.071
13. KRVEVKPYVIDDQMCDECQGARCGGKFAPFFCANVTCLQYYCEFCWANIHSRAGREFHKPLVK [L10I]  -0.062 ± 0.083
14. KGVEVKPYVLDDQMCDECQGARCGGKFAPFFCANVTCLQYYCEFCWANIHSRAGREFHKPLVK [R2G]  -0.077 ± 0.073
15. KRVEVKPYVLDDQMCDECQGARCVGKFAPFFCANVTCLQYYCEFCWANIHSRAGREFHKPLVK [G24V]  -0.083 ± 0.045
16. KRVEVKPYVLDDTMCDECQGARCGGKFAPFFCANVTCLQYYCEFCWANIHSRAGREFHKPLVK [Q13T]  -0.087 ± 0.045
17. KRVEVKPYVLDDQMCDECQGARCLGKFAPFFCANVTCLQYYCEFCWANIHSRAGREFHKPLVK [G24L]  -0.089 ± 0.035
18. KRGEVKPYVLDDQMCDECQGARCGGKFAPFFCANVTCLQYYCEFCWANIHSRAGREFHKPLVK [V3G]  -0.1 ± 0.033
19. KRVEVVPYVLDDQMCDECQGARCGGKFAPFFCANVTCLQYYCEFCWANIHSRAGREFHKPLVK [K6V]  -0.104 ± 0.034
20. KRVEVKPYVVDDQMCDECQGARCGGKFAPFFCANVTCLQYYCEFCWANIHSRAGREFHKPLVK [L10V]  -0.106 ± 0.038
21. KRVEVKPYVLDDQMCDECQGARCGGKFAPFFCANVTCLQYYCEFCWANIHSRAGRNFHKPLVK [E56N]  -0.111 ± 0.088
22. KRVEVKPYVLYDQMCDECQGARCGGKFAPFFCANVTCLQYYCEFCWANIHSRAGREFHKPLVK [D11Y]  -0.112 ± 0.096
23. KRVEVKPYVLDDQMCDECQGARCGGKFAPFFCANVTCLQRYCEFCWANIHSRAGREFHKPLVK [Y40R]  -0.132 ± 0.048
24. KRVEVKPYVLDDQMCDECQGARCGGKFAPFFCANVTCLQAYCEFCWANIHSRAGREFHKPLVK [Y40A]  -0.149 ± 0.056
25. KRVEVKPYVLDDQMCDECQGARCGGKFAPFFCANVTCLQYYCEFCWANIHSRAGREFHKMLVK [P60M]  -0.157 ± 0.064
26. KRVEVKPYVLDDQMCDECQGARCGGKFAPFFCANVTCLQYYCEFCWANIHSRAIREFHKPLVK [G54I]  -0.176 ± 0.16
27. KRVEVKPYVLDDQMCDECQGARCGGKWAPFFCANVTCLQYYCEFCWANIHSRAGREFHKPLVK [F27W]  -0.178 ± 0.052
28. KRVEVKPYVLDDQMCDECQGARCGGKFAPFFCANVTCLQYYCEFCWANIHSRAGREFHKHLVK [P60H]  -0.226 ± 0.13
29. KRVEVKPYVLDDQMCDECQGARCGGKFAPFFCANVTCLQYYCEFCWANIHSRAGREFCKPLVK [H58C]  -0.227 ± 0.062
30. KRVEVKPYVLDDQMCDECQGARCGGKFAPFFCANVTCLQYYCVFCWANIHSRAGREFHKPLVK [E43V]  -0.235 ± 0.056
31. KRVEVKPYVLDDQMCDECQGARCGGIFAPFFCANVTCLQYYCEFCWANIHSRAGREFHKPLVK [K26I]  -0.236 ± 0.091
32. KRVEVKPYVLDDQMCDECQGARCGGKFAPFFCANVTCLQYYCEFCWANIHFRAGREFHKPLVK [S51F]  -0.239 ± 0.065
33. KRVEVKPYVLMDQMCDECQGARCGGKFAPFFCANVTCLQYYCEFCWANIHSRAGREFHKPLVK [D11M]  -0.259 ± 0.056
34. KRVEVKPYVLDDQMCDECQGARCGGKFAPFFCLNVTCLQYYCEFCWANIHSRAGREFHKPLVK [A33L]  -0.311 ± 0.042
35. KRVEVKPYVLDDQMCDECQGARCGGKFAPFFCANVTCLQYYCEFCWANIHSRAGRAFHKPLVK [E56A]  -0.357 ± 0.061
36. KRVEVKPYVLDDQMCDECQGARCGGKFAPFFCANVTCLQYYCEFCWANIHSRAGRVFHKPLVK [E56V]  -0.373 ± 0.05
37. KRVEVKPYVLDDQMCDECQGARCGGKFAPFFCANVTCLQLYCEFCWANIHSRAGREFHKPLVK [Y40L]  -0.397 ± 0.049
38. KRVEVKPYVLDDQMCDECQGARCGGKFAPFFCANVTCLQYYCIFCWANIHSRAGREFHKPLVK [E43I]  -0.539 ± 0.087
39. KRVEVKPYVLDDQMCDECQGARCGGKFAPFFCANVTGLQYYCEFCWANIHSRAGREFHKPLVK [C37G]  -0.633 ± 0.056
40. KRVEVKPYVLDDQMCDECQGARCGGKFAPFFCANVTCLQYYCEFCWANIHSRAGREFMKPLVK [H58M]  -0.653 ± 0.091
41. KRVEVKPYVLDDQMCDECQGARCGGKFAPFFCANVTCLQYYCEFCWANIHSRAGREFRKPLVK [H58R]  -0.763 ± 0.049
42. KRVEVKPYVLDDQMCDECQGARCGGKFAPFFCANVTLLQYYCEFCWANIHSRAGREFHKPLVK [C37L]  -0.931 ± 0.074
43. KRVEVKPYVLDDQMCDECQGARCGGKFAPFFCANVTCLQYYCEFRWANIHSRAGREFHKPLVK [C45R]  -1.05 ± 0.066
